Experimental data reported in patent US6645738B1, “DNA molecules encoding the melanocortin 5 receptor protein from rhesus monkey” (Merck & Co., Inc., priority 1998, dated 2003).
Read-outs that look alike come from different tables or passages of the source.

Assays:
[1] = test system: rhesus MC-5R; format: cell-based, rhesus monkey (Macaca mulatta); settings: for EC50: read-out: EC50, nM rhMC-5R
Experimental: (§1) To determine the functional activation of receptors, stably transfected CHO cells were washed once with PBS without Ca^++/Mg^++, dissociated by non-enzymatic dissociation medium (Specialty Media, Inc.) at 37° C. for 10 min. Dissociated cells were resuspended in EBSS buffer containing 25 mM Hepes, 5 mM MgCl2, 0.1% BSA and 50 mM IBMX and incubated with agonist at room temperature for 45 min. The agonist activation was terminated by boiling for 4 min.
(§2) A cDNA encoding human MC-5R subcloned into the pIRES1neo expression vector (Clontech) and stably transfected into CHO cells was used as a reference for the pharmacological properties of the rhesus MC-5R. Single clones were used in all pharmacological studies as described above. The functional properties of rhMC-5R were determined by heterologous expression in CHO cells.

[2] = test system: rhesus MC-5R; format: binding, rhesus monkey (Macaca mulatta); settings: read-out: IC50, nM rhMC-5R
Experimental: (§3) The receptor plasmid was transfected into CHO dhfr- cells using lipofectamin (GIBCO). Transfected cells were selected by G418 for at least 2-3 weeks before binding and functional assays were performed. […] After incubation at room temperature for 3 hours, wells were washed 3 times by PBS, lysed in 0.5 ml of 0.05% SDS and counted by a gamma counter.
as §2

[3] = target: T1, human MC-5R (Homo sapiens, UniProt P33032); format: cell-based
T1 construct: expressed in transfected cells
Experimental: as §1
(§4) Single clones were used in all pharmacological studies as described above.
as §2

[4] = target: T1, human MC-5R; format: binding
Experimental: as §3, §4, §2

[5] = target: T2, human melanocortin 5 receptor (human, UniProt P33032 1-325); test: cell-based or functional assay
[6] = target: rhesus monkey (Macaca mulatta) melanocortin-5 receptor (rhesus monkey (Macaca mulatta)); test: cell-based or functional assay
[7] = target: rhesus monkey (Macaca mulatta) melanocortin-5 receptor (rhesus monkey (Macaca mulatta)); test: displacement of 0.1 nM 125I-NDP-α-MSH from CHO cells stably expressing rhMC-5R
[8] = target: T2, human melanocortin 5 receptor; test: displacement of 0.1 nM 125I-NDP-α-MSH from CHO cells stably expressing hMC-5R
[9] = target: T3, rhesus monkey (Macaca mulatta) melanocortin-5 receptor (rhesus monkey (Macaca mulatta), UniProt P33032 1-325 (human entry)); test: displacement of 0.1 nM 125I-NDP-α-MSH from CHO cells stably expressing rhMC-5R
T3 construct: Full-length open reading frame (325 amino acids) in pcDNA3.neo, stably expressed in CHO dhfr- cells; assays on whole cells; also called rhMC-5R; rhesus MC-5R
T3 chain: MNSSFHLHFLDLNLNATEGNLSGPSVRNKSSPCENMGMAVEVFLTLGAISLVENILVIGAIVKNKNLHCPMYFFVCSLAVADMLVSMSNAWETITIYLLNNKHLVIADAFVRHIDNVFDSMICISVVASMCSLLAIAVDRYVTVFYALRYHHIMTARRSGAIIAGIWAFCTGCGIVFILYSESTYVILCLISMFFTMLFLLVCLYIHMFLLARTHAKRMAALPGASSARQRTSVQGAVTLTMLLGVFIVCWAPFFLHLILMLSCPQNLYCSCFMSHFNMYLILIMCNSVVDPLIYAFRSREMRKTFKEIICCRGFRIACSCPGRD
Experimental: as §3, with “dhfr-cells” for “dhfr- cells”, “2–3” for “2-3”

[10] = target: T3, rhesus monkey (Macaca mulatta) …; test: cell-based or functional assay

T1 sequence (P33032 whole entry): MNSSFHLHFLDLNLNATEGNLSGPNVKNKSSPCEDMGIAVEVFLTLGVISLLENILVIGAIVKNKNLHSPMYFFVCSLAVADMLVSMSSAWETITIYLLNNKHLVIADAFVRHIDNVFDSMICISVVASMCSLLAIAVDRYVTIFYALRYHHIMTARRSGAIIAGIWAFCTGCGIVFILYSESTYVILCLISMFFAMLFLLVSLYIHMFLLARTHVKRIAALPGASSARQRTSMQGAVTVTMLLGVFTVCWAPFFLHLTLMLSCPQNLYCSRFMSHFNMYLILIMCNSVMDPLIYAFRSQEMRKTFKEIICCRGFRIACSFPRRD

Molecule | Maximal response (%) rhMC-5R [1] [%] | EC50 [1] [nM] | IC50 [2] [nM] | EC50, nM (cAMP synthesis in CHO cells) [5] [nM] | Maximal response (%) [5] [%] | EC50, nM (cAMP synthesis in CHO cells) [6] [nM] | Maximal response (%) [6] [%] | IC50 [7] [nM] | further results
NDP-α-MSH | 100 | 0.02 ± 0.01 | 0.2 ± 0.1 | – | – | – | – | – | –
γ2-MSH | 100 | – | – | – | – | – | – | – | Agonist character at human MC-5R (in words) [3]: partial agonists; Maximal response (%) hMC-5R [3]: 80%
α-MSH | 100 | 0.2 ± 0.1 | – | – | – | – | – | – | Apparent binding affinity for the human MC-5R (in words) [4]: very low apparent binding affinity
Shu-9119 (peptide) | – | – | – | 0.03 | 100 | 0.007 | 100 | 0.02 | IC50 [8]: 0.4 nM
NDP-α-MSH (peptide) | – | – | – | 0.3 | 100 | 0.02 | 100 | 0.2 | IC50 [8]: 0.5 nM
human ACTH(1-24) [ACTH1-24] | – | – | 15 ± 1 | – | – | – | – | – | Maximal response (%) rhMC-5R ([1]; cAMP response, CHO cells): 100%; EC50 ([1]; intracellular cAMP, CHO cells, agonist 45 min at room temperature): 0.2 ± 0.1 nM; Maximal response (%) hMC-5R ([3]; cAMP response, CHO cells): 100%
MT-II (peptide) | – | – | – | 0.8 | 85 | 0.02 | 100 | 5 | –
MT-II [MTII] | 100 | 0.02 ± 0.01 | 5 ± 0.2 | – | – | – | – | – | Agonist character at human MC-5R (in words) [3]: partial agonists; Maximal response (%) hMC-5R [3]: 85%
SYSMEHFRWGKPVGKKRRPVKVYP (peptide, UniProt P01189 138-161, looked up, range 138-161) [human ACTH(1-24)] | – | – | – | 5 | 100 | – | – | – | IC50 [9]: 15 nM; EC50, nM (cAMP synthesis in CHO cells) [10]: 0.2 nM; Maximal response (%) [10]: 100%
